B1: human type 2 MAP (Homo sapiens) (protein)
chain: MAGVEEVAASGSHLNGDLDPDDREEGAASTAEEAAKKKRRKKKKSKGPSAAGEQEPDKESGASVDEVARQLERSALEDKERDEDDEDGDGDGDGATGKKKKKKKKKRGPKVQTDPPSVPICDLYPNGVFPKGQECEYPPTQDGRTAAWRTTSEEKKALDQASEEIWNDFREAAEAHRQVRKYVMSWIKPGMTMIEICEKLEDCSRKLIKENGLNAGLAFPTGCSLNNCAAHYTPNAGDTTVLQYDDICKIDFGTHISGRIIDCAFTVTFNPKYDTLLKAVKDATNTGIKCAGIDVRLCDVGEAIQEVMESYEVEIDGKTYQVKPIRNLNGHSIGQYRIHAGKTVPIVKGGEATRMEEGEVYAIETFGSTGKGVVHDDMECSHYMKNFDVGHVPIRLPRTKHLLNVINENFGTLAFCRRWLDRLGESKYLMALKNLCDLGIVDPYPPLCDIKGSYTAQFEHTILLRPTCKEVVSRGDDY
B2: yeast type 1 MAP (Saccharomyces cerevisiae S288C) (protein)
chain: MSTATTTVTTSDQASHPTKIYCSGLQCGRETSSQMKCPVCLKQGIVSIFCDTSCYENNYKAHKALHNAKDGLEGAYDPFPKFKYSGKVKASYPLTPRRYVPEDIPKPDWAANGLPVSEQRNDRLNNIPIYKKDQIKKIRKACMLGREVLDIAAAHVRPGITTDELDEIVHNETIKRGAYPSPLNYYNFPKSLCTSVNEVICHGVPDKTVLKEGDIVNLDVSLYYQGYHADLNETYYVGENISKEALNTTETSRECLKLAIKMCKPGTTFQELGDHIEKHATENKCSVVRTYCGHGVGEFFHCSPNIPHYAKNRTPGVMKPGMVFTIEPMINEGTWKDMTWPDDWTSTTQDGKLSAQFEHTLLVTEHGVEILTARNKKSPGGPRQRIK

How the values were obtained:
[1] = substrate: CSCC[C@H](N)C(=O)NCC(=O)N1CCC[C@H]1C(=O)Nc1ccc([N+](=O)[O-])cc1; assay: AccQ-Tag assay, kinetic parameters of the substrate peptide with type 2 MAP; format: biochemical; conditions: other: human type 2 MAP; substrate Met-Gly-Pro-p-nitroanilide; mean ± SD
Description: (§1) To determine whether Met-Gly-Pro-p-nitroanilide is a substrate for MAP, and whether the presence of dipeptidyl peptidase could affect the activity of MAP, an AccQ-Tag assay was used as described in Zuo et al., supra.

[2] = substrate: CSCC[C@H](N)C(=O)NCC(=O)N1CCC[C@H]1C(=O)Nc1ccc([N+](=O)[O-])cc1; assay: AccQ-Tag assay, kinetic parameters of the substrate peptide with type 1 MAP; format: biochemical; conditions: other: yeast type 1 MAP; substrate Met-Gly-Pro-p-nitroanilide; mean ± SD
Description: as §1

Protein	Km [1] [mM]	kcat [1] [s⁻¹]	kcat/Km [1] [M⁻¹ s⁻¹]	Km [2] [mM]	kcat [2] [s⁻¹]	kcat/Km [2] [M⁻¹ s⁻¹]
B1	3 ± 0.5	8.63 ± 0.583	2870 ± 433			
B2				4 ± 0.7	14.4 ± 0.417	3600 ± 583
